This data set in a line: label from the status in PepcDB records.
In the case of “METIKIGVVGLGTVGTGVVKMLQAHQEKISEITGRKLELACVVVHNLKKHEQVDLGDVQMTDQIATLLDDPSIQIMVEVMGSIHPAKEYITQALQAGKHVVTANKDLIAQYGRELVQIARENHRDLFYEASVAGGIPILRTIDNSFAADRIQRVMGIVNGTTNYIMTQMLTKHWSYDQALSSAQDLGFAESDPTNDVEGLDAAFKMIILTQFAFGMSLSLDHVQVQGITKISPEDIAEAHQLGYTIKLLGIAEEIDDRIAVSVGPVLVSDQHPLATVQNENNAVMVTGTAVGNTMFYGPGAGELPTANSVLSDITTVAKNIALNTTGNTFNSYRQETVLATPEDVVYPHFIALKMRDVPGMMMKLTAIMTRAEVSFSRIIQNQLGDGNARVVIITHAMNDQQLADITREIGEQENMQLLASYKVLKNA”, the protein production entry is on record as “failed”. The entry for “MWDALTNWLNLWVGQIEATVFQNVVLPVVYNLGFGGYAEDAFTGTEWLLVGLVQIAVMVLILGPLERLRPVEVVTDRAAIRTDILYTLIHRLGLFRLAMFFLLAPLMDGIEGHLRLLGWQRVNVEDWWPGVTSIPLISFSLYLALFDLLDYWYHRLSHTYRWWWSLHAVHHSQRQMTLWSDNRNHLLDDILRDFVFAAVALAVGVEPSQYVLLVALSQLLQSLQHANLRLHFGWLGERLLISPRFHRTHHAVGLGHEKRATAEKPARLGGCNYGVIFPWWDMLFGTADFTDVYHPTGIRDQMPPPAGRARSYGDGFLSQQWLGIKRLLRLG” is “failed”.

Turning to “MFKKKGCFMNQLEQKLEQDFGIVFSQKDLLETAFTHTSYANEHRLLNISHNERLEFLGDAALQLVISVYLYNRYPNKPEGEMSKMRSTIVREESLAGFTKACGFEQYIRLGKGEEKSGGRERATILGDLWEAFLGALYLDQGLPAVEKFLNQVMIPQVEKGNFDRVIDYKTALQERLQVNGKVDITYTVIDESGPAHAKEFTMQVAVDGKELSTGLGKSKKLAEQAAAKSALEQLGN”, the protein production entry is reported as “failed”. The entry for “MTKIYFAGPLFSQADLRYNAYLVEQIRQLDKTIDLYLPQENAAINDKSAYADSKMIALADTENVLASDLLVALLDGPTIDAGVASEIGVAYAKGIPVVALYTDSRQQGADNHQKLDALNEIAENQFHYLNLYTVGLIKLNGRVVSSEEDLLEEIKQRLS” is “not failed”; for “MKNPDYEPSKPHHTPDGFRNRYPHAPRDSNGSAWKWMRERRRLGLPKPPTADLSCVPPDLAAIRRPSAVPQVTWIGHETLLLQIDGLNVLTDPVFGERASPLPFAGPRRHQPPGLSLAQLPHIDLVLLSHNHYDHLCRASVRALMRQPGGAPMFFVPLGIDRWFKRHVRGTRLSGEHVNVRAFDWDTEARFGPFSVHFCAVQHWSARGLYDRNRTLWGSWALLHPQLRFWFSGDLGYSQDTRDIGARFGHFDVAAIAVGAYEPRWFMKTQHIDPAEAVQVMQDIGARHAVGIHWGTFPLTDEPLDQPIADLANALRARDIDAERFVLFRHGETRVWDAQAARLLTPAEQQKARPRVDSLAAQ” it is “failed”; for “MMTALATVTGVERHGKQYEIDLSCEQQTSCSSCSSQKSCGTGVVTKAIGNKSLSWHLRTEKNVQVGQVVEIGFPESSLIKS” it is “failed”.

In the case of “MSRFPRRFIDDSSMEDAGISLCPSIHYRPINPNDLDRLEQIHRDIFPIKYESEFFQSVVNGVDIVSWAAVDRSRPDDHSDELIGFVTAKFVLAKDSEIDDLIHYDSSKGEETLIYILTLGVVETYRNRGIAMSLISEVIKYASGLSVCRGVYLHVIAHNNAAICLYKRLMFRCVRRLHGFYLINRHHFDAFLFVYFINGSRTPCSPLEVAMFVVNYMKSGIKSVASKLANKDEKGLKWLFCKDTDCV”, the protein production entry is “failed”.

Consider “TPTEGLTIGDKAPTFTICGEKQLIDLKDLRGKYVLLSFWASYDALSRMQNATLNHAVAQADNVEMVSVSFDEYKSIFNETIKKDQISTSNCFVELAGVSSDLYQTYRLKRGFKNFLLDENGVIVAKDVTVSELSS”, for which the protein production result was “failed”. On to “MENGLAQGIGGIAFLVGVMAFWQKDDLRFRYQMMAFCFIMGVHFALLGATVAAIGVVINGIRSFASIKTQSRKVMWFFIALMWLMTLPNMSHFFELLTVIGSSVATWALFSKQGIALRSLILFNSFCWVSHNLWLGSIGGSLVESTFIVTNLLTIYRLFHAQERISQTQNNQFLASNTESSTD”, for which the protein production entry is reported as “failed”. Consider “MSVKMKKCSREDLQTLQQLSIETFNDTFKEQNSPENMKAYLESAFNTEQLEKELSNMSSQFFFIYFDHEIAGYVKVNIDDAQSEEMGAESLEIERIYIKNSFQKHGLGKHLLNKAIEIALERNKKNIWLGVWEKNENAIAFYKKMGFVQTGAHSFYMGDEEQTDLIMAKTLILEHHHHHH”, for which the protein production result is reported as “not failed”. Take “VEGFKVMRDGIKVASDETLLTPRFYTTDFDEMERLFSLELNKNMDMEEFEAMLNEFKLDYNQRHFVRNETFKEAAEKIQGPTRKIFIEFLERSCTAEFSGFLLYKELGRRLKATNPVVAEIFTLMSRDEARHAGFLNKAMSDFNLALDLGFLTKNRKYTFFKPKFIFYATYLSEKIGYWRYISIYRHLQRNPDNQLYPLFEYFENWCQDENRHGDFFTAVLKARPEMVNDWAAKLWSRFFCLSVYITMYLNDHQRDAFYSSLGLNTTQFNQHVIIETNKSTERIFPAVPDVENPEFFRRMDLLVKYNAQLVNIGSMNLPSPIKAIMKAPILERMVAEVFQVFIMTPKESGSYDLDANKTALVY”: the protein production entry is on record as “not failed”. With “CLEDILSATKMVINLCLPQFRPRIHCNKISADGYEVENLISEDLTKRSHGFRTEYFIKPPVYVTVSFPFNVEICRINIDLTAGGGQNVTGLEMYTSASSSRVSWNTPQCRTLGPAEPSVPDKEAFTLVGKVLLKNQSQVVFSHRGFKARPPFGAMEATLPSPAVVAQELWNKGALSLSHVAHLRICITHVTGGGIPCIKRLEVWGQPAKTCSQEVIDSILLVTSENLPQDVALQAPALPMESDCDPGDQPESQQAPSSLQKLAEIIQDVPEEFLDPITLEIMPCPMLLPSGKVIDQSTLEKCNRSEATWGRVPSDPFTGVAFTPHSQPLPHPSLKARIDHFLLQHSIPGCHLLGRAQTALAVIPSSIVLPSQKRKIEQAEHVPDSNFGVNASCFSATSPLVLPTTSEHTAKKMKATNEPSLTHMDCSTGPLSHEQKLSQSLEIALASTLGSMPSFTARLTRGQLQHLGTRGSNTSWRPGTGSEQPGSILGPECASCKRVFSPYFKKEPVYQLPCGHLLCRPCLGEKQRSLPMTCTACQRPVASQDVLRVHF”, the protein production entry is given as “not failed”.

As to “MISGISGILCVVLVSKGKISNYFFGLIFAYTYFYVAWGSNFLGEMNTVLYVYLPSQFIGYFMWKANMQNSDGGESVIAKALTVKGWMTLIVVTTVGTLLFVQALQAAGGSSTGLDGLTTIITVAAQILMILPLS”, the protein production entry is listed as “failed”. “MEVKEVELELSSEATFLSKTSIGEITAGEKGLNPMELLLVSIGSCSGVDVYHILKKKRQEVKDIKIFLKGKRREKHPKIYEEIEIKYVAVGKVEEKALEQAVKLSTEKYCSVLAMVKPSTNLKISWEVKWEE”: the protein production entry is “not failed”.

For “ETLPPRQRQRALALPLRLNPRTVALGAQWRQEAGADDAAIVQRALNWVRTEFTYTLAATKRPGLHTVDEFLFRDKAGFCEQFSSSFVVLMRASGIPARVVTGYVGGIYNNLGHYWVIRRMDAHAWAEVWLPQRGWVRVDPTAAVAPERIRDTLEDRLAQNNNDASIDSHWRLADIGDWLRHSWNNLVLGFDAKRQQQLLHSFGINHLYVSQLMMLFIAFTSVSLGLMAWWLARGERERDALLRAWHRLDRHYARLGLGRTRHEPALVW”, the protein production entry is reported as “failed”. For “VAPLGLSVPSDVELPPTAKMHAIIERTASFVCRQGAQFEIMLKAKQARNSQFDFLRFDHYLNPYYKFIQKAMKEGRYTVLAENKSDEKKKSGVS”, the protein production entry is given as “not failed”.

The record behind these values is a protein production outcome set (Wang et al. 2014).
